Measurements: publication PMC9723946 (The Journal of Biological Chemistry, 2022)
Read-outs that look alike come from different tables or passages of the source. Where no end group is shown, it is not given here. Ahx = NCCCCCC(=O)O

What was measured:
[1] = target: T1, His-tagged G3BP1 NTF2 (peptide arrays) (human, UniProt Q13283 1-139); test: peptide or protein array
[2] = target: T1, His-tagged G3BP1 NTF2 (peptide arrays); test: peptide or protein array; remark: listed apart in the source
[3] = target: G3BP1 NTF2-like domain (1-139), WT (human, UniProt Q13283 1-139); test: fluorescence polarisation
Chain of G3BP1 NTF2-like domain (1-139), WT (Q13283 1-139): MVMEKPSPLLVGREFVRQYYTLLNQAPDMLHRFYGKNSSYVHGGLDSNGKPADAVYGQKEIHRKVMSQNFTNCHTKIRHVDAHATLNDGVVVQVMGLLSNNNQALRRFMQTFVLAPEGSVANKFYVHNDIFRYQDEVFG

[4] = target: G3BP1 NTF2-like domain (1-139) F15W (human, UniProt Q13283 1-139, F15W); test: fluorescence polarisation
Chain of G3BP1 NTF2-like domain (1-139) F15W (Q13283 1-139 F15W): as the sequence (Q13283 1-139) above, with F15W counted along it

[5] = target: G3BP1 NTF2-like domain (1-139) F33W (human, UniProt Q13283 1-139, F33W); test: fluorescence polarisation
Chain of G3BP1 NTF2-like domain (1-139) F33W (Q13283 1-139 F33W): as the sequence (Q13283 1-139) above, with F33W counted along it

[6] = target: G3BP1 NTF2-like domain (1-139) F124W (human, UniProt Q13283 1-139, F124W); test: fluorescence polarisation
Chain of G3BP1 NTF2-like domain (1-139) F124W (Q13283 1-139 F124W): as the sequence (Q13283 1-139) above, with F124W counted along it

[7] = target: G3BP1 NTF2-like domain (1-139) F15/33W (human, UniProt Q13283 1-139, F15W | F33W); test: fluorescence polarisation
Chain of G3BP1 NTF2-like domain (1-139) F15/33W (Q13283 1-139 F15W/F33W): as the sequence (Q13283 1-139) above, with F15W, F33W counted along it

[8] = target: G3BP1 NTF2-like domain (1-139) F15/124W (human, UniProt Q13283 1-139, F15W | F124W); test: fluorescence polarisation
Chain of G3BP1 NTF2-like domain (1-139) F15/124W (Q13283 1-139 F15W/F124W): as the sequence (Q13283 1-139) above, with F15W, F124W counted along it

[9] = target: G3BP1 NTF2-like domain (1-139) F33/124W (human, UniProt Q13283 1-139, F33W | F124W); test: fluorescence polarisation
Chain of G3BP1 NTF2-like domain (1-139) F33/124W (Q13283 1-139 F33W/F124W): as the sequence (Q13283 1-139) above, with F33W, F124W counted along it

[10] = target: G3BP1 NTF2-like domain (1-139) TripleW (F15W/F33W/F124W) (human, UniProt Q13283 1-139, F15W | F33W | F124W); test: fluorescence polarisation
Chain of G3BP1 NTF2-like domain (1-139) TripleW (F15W/F33W/F124W) (Q13283 1-139 F15W/F33W/F124W): as the sequence (Q13283 1-139) above, with F15W, F33W, F124W counted along it

[11] = target: G3BP1 NTF2-like domain (1-139) S38G (human, UniProt Q13283 1-139, S38G); test: fluorescence polarisation
Chain of G3BP1 NTF2-like domain (1-139) S38G (Q13283 1-139 S38G): as the sequence (Q13283 1-139) above, with S38G counted along it

[12] = target: G3BP1 NTF2-like domain (1-139) S38T (human, UniProt Q13283 1-139, S38T); test: fluorescence polarisation
Chain of G3BP1 NTF2-like domain (1-139) S38T (Q13283 1-139 S38T): as the sequence (Q13283 1-139) above, with S38T counted along it

[13] = target: G3BP1 NTF2-like domain (1-139) S38A (human, UniProt Q13283 1-139, S38A); test: fluorescence polarisation
Chain of G3BP1 NTF2-like domain (1-139) S38A (Q13283 1-139 S38A): as the sequence (Q13283 1-139) above, with S38A counted along it

T1 sequence (Q13283 1-139): as the sequence (Q13283 1-139) above

binding result [1]	Binder	also measured
binds	QGPYNFIQESMLDFENQTLD [Caprin1 peptide D375E (SPOT array)]	
binds	QGPYNFIQDSMLDFENQTLD [native Caprin1 peptide QGPYNFIQDSMLDFENQTLD (SPOT array)]	
binds	QGPFNFIQDSMLDFENQTLD [Caprin1 peptide Y370F (SPOT array)]	
	HSPQYIFGDLSPDEFNQFFV [USP10 peptide F13L (SPOT array)]	binding result [2]: binds
binds	QGPYTFIQDSMLDFENQTLD [Caprin1 peptide N371T (SPOT array)]	
	HSPQYIFGDISPDEFNQFFV [USP10 peptide F13I (SPOT array)]	binding result [2]: binds
binds	QGPYRFIQDSMLDFENQTLD [Caprin1 peptide N371R (SPOT array)]	
binds	QGPYVFIQDSMLDFENQTLD [Caprin1 peptide N371V (SPOT array)]	
binds	QGPYIFIQDSMLDFENQTLD [Caprin1 peptide N371I (SPOT array)]	
	HSPQYIFGDFSPDEFNQFFV [native USP10 peptide HSPQYIFGDFSPDEFNQFFV (SPOT array)]	binding result [2]: binds
	{fluorescein-Ahx}-YNFIQDSMLDFE [Caprin1-derived dodecamer reporter peptide F*-YNFIQDSMLDFE]	Kd [3]: 1700 nM; Kd [4]: 9.3 µM; Kd [5]: 79.3 µM; Kd [6]: 1700 nM; Kd [7]: 256 µM; Kd [8]: 14.4 µM; Kd [9]: 133 µM; Kd [10]: 240 µM; Kd [11]: 10.5 µM; Kd [12]: 11.8 µM; Kd [13]: 7.3 µM
	HSPQYIFGDVSPDEFNQFFV [USP10 peptide F13V (SPOT array)]	binding result [2]: binds
binds	QGPYNFIQDSFLDFENQTLD [Caprin1 peptide M377F (SPOT array)]	
binds	QGPYNFIQDSYLDFENQTLD [Caprin1 peptide M377Y (SPOT array)]	
binds	QGPYNFIQDSMIDFENQTLD [Caprin1 peptide L378I (SPOT array)]	
binds	QGPYYFIQDSMLDFENQTLD [Caprin1 peptide N371Y (SPOT array)]	
binds	QGPYNFFQDSMLDFENQTLD [Caprin1 peptide I373F (SPOT array)]	

binding result [1]	Binder	also measured
	HSPQYIFGDYSPDEFNQFFV [USP10 peptide F13Y (SPOT array)]	binding result [2]: binds
binds	QGPYWFIQDSMLDFENQTLD [Caprin1 peptide N371W (SPOT array)]	
binds	QGPYQFIQDSMLDFENQTLD [Caprin1 peptide N371Q (SPOT array)]	
binds	QGPYHFIQDSMLDFENQTLD [Caprin1 peptide N371H (SPOT array)]	
binds	QGPYFFIQDSMLDFENQTLD [Caprin1 peptide N371F (SPOT array)]	
binds	QGPYMFIQDSMLDFENQTLD [Caprin1 peptide N371M (SPOT array)]	
binds	QGPYCFIQDSMLDFENQTLD [Caprin1 peptide N371C (SPOT array)]	
binds	QGPYEFIQDSMLDFENQTLD [Caprin1 peptide N371E (SPOT array)]	
binds	QGPYDFIQDSMLDFENQTLD [Caprin1 peptide N371D (SPOT array)]	
binds	QGPYSFIQDSMLDFENQTLD [Caprin1 peptide N371S (SPOT array)]	
binds	QGPYKFIQDSMLDFENQTLD [Caprin1 peptide N371K (SPOT array)]	
binds	QGPYLFIQDSMLDFENQTLD [Caprin1 peptide N371L (SPOT array)]	
	HSPQYIFADFSPDEFNQFFV [USP10 peptide G11A (SPOT array)]	binding result [2]: binds
binds	QGPYNFIQDCMLDFENQTLD [Caprin1 peptide S376C (SPOT array)]	
binds	QGPYNFLQDSMLDFENQTLD [Caprin1 peptide I373L (SPOT array)]	
	HSPQYIFGDWSPDEFNQFFV [USP10 peptide F13W (SPOT array)]	binding result [2]: binds
